The target of one assay is Neto2-ΔCUB2-HA (UniProt Q8BNJ6). Nature of the assay: co-IP.
In another assay the target is Neto1-ΔCUB2-HA (UniProt Q8R4I7). Nature of the assay: co-IP.

Substance “FLAG-GluK2 (from UniProt P42260 32-908) (receptor)” gave an amount of GluK2 co-immunoprecipitated, percent of full length Neto2 with Neto2-ΔCUB2-HA of 33%. In the assay with Neto1-ΔCUB2-HA, this substance returned an amount of GluK2 co-immunoprecipitated, percent of full length Neto1 of 39%.

The values are drawn from publication PMC3148853.
